Here are results for three substances from patent publication US4397951A, “Elastase-containing composition permitting elastase to be absorbed in increased amount” (Eisai Co., Ltd., priority 1981, dated 1983).

For series [1] the following is noted: intraintestinal, rats, cited from earlier work.
Series [2] can be described thus: Serum elastase level, Tmax, Cmax, AUC after intraduodenal aqueous solution (Effect Example 3). Format: in vivo, beagles. The conditions noted are these: intraduodenal 5 ml solution, 55.2 mg elastase (326 EL. U/mg). As for the experimental part: An aqueous control solution was prepared by adding 55.2 mg of elastase (326 EL. U/mg) alone to 5 ml of water.
Four beagles (weighing 10.5-14.0 kg) were divided into 2 aliquot groups, each being 2 subjects. […] The subjects were fasted overnight, and the abdomen was cut open along the median line under anesthesia in the following morning. Then, 5 ml of the respective sample and control solutions were introduced into duodendum using injection tube, followed by immediate suturing. 3 ml of the blood were respectively taken prior to the administration of the solutions, and at the elapsed times of 1, 2, 4, 6, 8, 10, 12 and 24 hours after the administration of the solutions. About 1 ml of serum was respectively separated by means of centrifuge.
Serum elastase levels were measured in accordance with "Enzyme-immunological method", as described in the effect example 1.

A further series deals with elastin. The series can be described thus: Elastase activity (decomposition of insoluble elastin). In kind it is biochemical. As to conditions: pH 8.8, 37°C, 30 min, elastin substrate. As for the experimental part:
In the present invention, the compounding ratio of pure elastase to sucrose fatty acid ester is specified in terms of weight ratio for convenience' sake. […] That is, at present available pure elastase has an activity of 340 elastase activity units (abbreviated as 340 EL. U) per mg measured by the method to be described hereinafter, and therefore the composition of the present invention is also defined as an elastase-containing composition containing 0.5 to 50 mg of sucrose fatty acid ester per 340 EL. U of elastase. More specifically, the composition of the present invention is an elastase-containing composition which contains 0.5 to 50 mg of sucrose fatty acid ester per 340 EL. U (measured by the measuring method described hereinafter) of elastase.
An elastase-containing sample is accurately weighed, and dissolved in a diluted Palitzsch buffer solution to make a 250 ml elastase enzyme solution. 1 ml of the elastase enzyme solution is added to 4 ml of a substrate solution, and incubation is conducted for 30 minutes at 37°±0.1° C. with shaking at 100 strokes/min. […]
The amount of soluble elastin produced per minute as a result of decomposition of insoluble elastin under the above-described measuring conditions is determined as an amount of tyrosine (μg) by which EL. […]

The conditions of series [3]: background statement; cited from earlier work.
The conditions of series [4]: statement; cited from earlier work.

Like-named read-outs stand apart in the source and are kept apart here.

“^131 I-elastase: 131I-labelled elastase dissolved in a physiological saline solution”: the “amount absorbed (blood vessel route plus lymphatic vessel route)” value in series [1] (1 mg in physiological saline) is given as 0.15%; in series [1] (5 mg in physiological saline) it was 0.05%.

Regarding “Control Solution: 55.2 mg of elastase (326 EL. U/mg) alone in 5 ml of water”, the figures for the AUC0-24hr in series [2] and in series [2] (1440 min) were 125.84 ng·h/mL and 307.18 ng·h/mL, respectively.

In the case of “elastase: decomposing enzyme for elastin, extracted from porcine pancreas; polypeptide having a molecular weight of 25,900”, the elastase activity in the series with elastin was found to be 340 EL. U per mg. Further, in series [3], the “effect on elasticity of blood vessel” value is on record as “increase elasticity of blood vessel” and the “effect on serum lipid level” value was “normalize serum lipid level”. The “stability to gastric acid” value in series [4] is reported as “unstable to gastric acid”.
